Experimental findings from PMC6021487 are described below.

This assay addresses IL-33 (UniProt O95760). Briefly: co-immunoprecipitation with anti-HA, immunoblot. To be noted: reference: wild type PTRF; sites Y158. In general terms: A western blot detects proteins with antibodies after separation by electrophoresis.

For “polymerase I and transcript release factor (PTRF, Cavin-1) (from UniProt O54724) PTRF Y158F”, the “binding against the reference” value was “stronger”.
